Changes are numbered by the printed parent chain.
B1: C15 (antibody, V domains shown)
VH: EMQLLESGGGLVQPGGSLRVSCAASGFTFSSHAMSWVRQAPGKGLEWVSSISRSGDNTFYADSVKGRFTISRDNIKSTVYLQMNSLRAEDTAVYFCASRYTEGDSVWYFDVWGRGTLVTVSS
VL: EVVLTQSPATLSVSAGDRATLSCRASQSVSRDLAWYQQKPGQAPRLLIYGASTRATDIPVRFSGSGSGTEFSLTISSLQSEDFAVYYCHQYKHWPRTFGQGTKVEIKR
notes: Human IgG, transiently expressed in HEK293
B2: C12 (antibody, V domains shown)
VH: QVQLQESGPGLVKPLETLSLTCTVSGGSIRGGDYWWTWVRQPPGKGLEWLGYIYRTGSTYYNPSLKSRLTISLDTSKNHFSLKLASATAADTAVYYCARDPGDDSGGNSGLDYWGQGVLVSVSS
VL: QSMLTQPPSVSAAPGQKVIISCSGSSSNIGNNFVNWYQKFPGTAPKLLIYDNDKRPSGIPDRFSGSKSGTSATLGITGLQTGDEAEYYCGTWDSSLTAGVFGGGTTLTVLG
notes: as for B1
B3: C11 (antibody, V domains shown)
VH: EVQLLESGGGLIQPGGSLRLSCVASGFTFTRHAINWVRQAPGKGLEWVSAISGSGSSTYYADSVKGRFTISRDNAKNTLYLQMNRLRVEDTAVYYCAKDKDYGMVAATPDAFDIWGQGTMVTVSS
VL: QSVLTQPPSVSAAPGQKVTISCSGSRSNIAKNYVYWYQQLPGTAPKLLIYDTNKRPSGIPDRFSGSKSGTSATLAITGLQTGDEADYYCGTWDSSLKTAIFFGGGTTVTVLG
notes: as for B1
B4: C6 (antibody, V domains shown)
VH: QVQLQESGPGLVKPLETLSLTCTVSGGSISSGSFYWTWIRQHPGKGLEWIGYIHSSGTTYYNPSLKSRLNISRDTSKNQFTLKLSSVTAADTAVYYCAKEIIQWPRRWFDPWGQGTLVTVSS
VL: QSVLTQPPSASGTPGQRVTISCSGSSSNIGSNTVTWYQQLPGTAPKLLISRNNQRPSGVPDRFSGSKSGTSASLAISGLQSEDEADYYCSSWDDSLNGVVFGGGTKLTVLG
notes: as for B1
B5: C8 (antibody, V domains shown)
VH: B4 VH
VL: B3 VL with A30G, T52N, A99G, T107K, V108L
notes: as for B1
B6: C3 (antibody, V domains shown)
VH: B4 VH
VL: B2 VL with F33Y, K39Q, F40L, E86D, S95T, T106K
notes: as for B1
B7: C4 (antibody, V domains shown)
VH: B4 VH
VL: QSVLTQPPSVSAAPGQKVIISCSGSGSNIGSHYVNWYQQLPGAAPKLLIYDNDKRPSGIPDRFSGSKSGTSATLAITGLQTGDEADYHCATWDGTLTAGVFGGGTKLTVLG
notes: as for B1
B8: C5 (antibody, V domains shown)
VH: B4 VH
VL: B2 VL
notes: as for B1
B9: C7 (antibody, V domains shown)
VH: B4 VH
VL: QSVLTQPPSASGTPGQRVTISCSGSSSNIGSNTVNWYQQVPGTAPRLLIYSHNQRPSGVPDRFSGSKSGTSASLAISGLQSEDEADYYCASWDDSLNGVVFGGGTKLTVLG
notes: as for B1
B10: C10 (antibody, V domains shown)
VH: B4 VH
VL: QSVLTQPPSASGTPGQRVTISCSGSSSNIGSNYIDWYQQLPGTGPQLLTYRNNQRPSGVPDRFSGSKSGTSASLAISGLRSEDEADYYCASWDDSLSSPVFGGGTKLTVLG
notes: as for B1
B11: C9 (antibody, V domains shown)
VH: B4 VH
VL: B3 VL
notes: as for B1

Key:
[1] = target: CMV AD169 envelope glycoprotein B (gB) (human cytomegalovirus strain AD169, UniProt P06473 32-906); test: cell-based or functional assay
[2] = target: T1, AD4 polypeptide (cloned AD4 fragment of CMV AD169 envelope glycoprotein B) (human cytomegalovirus strain AD169, UniProt P06473 112-438); test: SPR (Biacore T200), antibody captured on anti-human IgG CM5 chip, AD4 polypeptide as analyte, 1:1 model
T1 construct: also called antigenic domain 4

Row | Binder | CMV Neutr. IC50 [1] [µg/mL] | Kd [2] [nM] | koff [2] [s⁻¹] | kon [2] [M⁻¹ s⁻¹]
1 | B1 | < 0.3 | 6.44 | 0.00234 | 363000
2 | B2 | > 50 | 3.27 | 0.00369 | 1.13e+06
3 | B3 | > 50 | 5.67 | 0.00109 | 192000
4 | B4 | < 2 | 2.5 | 0.00138 | 554000
5 | B5 | > 50 | 4.49 | 0.00186 | 414000
6 | B6 | < 0.07 | 0.549 | 0.00068 | 1.24e+06
7 | B7 | < 0.04 | 0.695 | 0.00063 | 908000
8 | B8 | < 6 | 0.278 | 0.000201 | 721000
9 | B9 | > 50 | 7.76 | 0.00604 | 779000
10 | B10 | > 50 | 3.97 | 0.00197 | 496000
11 | B11 | > 50 | 3.95 | 0.00238 | 602000

From patent publication US20150110794A1 (CELL SIGNALING TECHNOLOGY, published 2015)
